Data: patent US11833164B2, “Methods of treating Fabry disease in patients having a mutation in the GLA gene” (Amicus Therapeutics, Inc., priority 2019, dated 2023)
Changes are numbered by the printed parent chain. Names and notes keep the numbering of the source.

B1: V137L (protein)
chain: MQLRNPELHLGCALALRFLALVSWDIPGARALDNGLARTPTMGWLHWERFMCNLDCQEEPDSCISEKLFMEMAELMVSEGWKDAGYEYLCIDDCWMAPQRDSEGRLQADPQRFPHGIRQLANYVHSKGLKLGIYADLGNKTCAGFPGSFGYYDIDAQTFADWGVDLLKFDGCYCDSLENLADGYKHMSLALNRTGRSIVYSCEWPLYMWPFQKPNYTEIRQYCNHWRNFADIDDSWKSIKSILDWTSFNQERIVDVAGPGGWNDPDMLVIGNFGLSWNQQVTQMALWAIMAAPLFMSNDLRHISPQAKALLQDKDVIAINQDPLGKQGYQLRQGDNFEVWERPLSGLAWAVAMINRQEIGGPRSYTIAVASLGKGVACNPACFITQLLPVKRKLGFYEWTSRLRSHINPTGTVLLQLENTMQMSLKDLL
B2: K140E (protein)
chain: B1 chain with L137V, K140E
B3: K140Q (protein)
chain: B1 chain with L137V, K140Q
B4: N139H (protein)
chain: B1 chain with L137V, N139H
B5: T141S (protein)
chain: B1 chain with L137V, T141S
B6: G144C (protein)
chain: B1 chain with L137V, G144C
B7: K140N (protein)
chain: B1 chain with L137V, K140N
B8: G138A (protein)
chain: B1 chain with L137V, G138A
B9: N139I (protein)
chain: B1 chain with L137V, N139I
B10: K140I (protein)
chain: B1 chain with L137V, K140I
B11: K140R (protein)
chain: B1 chain with L137V, K140R
B12: N139K (protein)
chain: B1 chain with L137V, N139K
B13: A143E (protein)
chain: B1 chain with L137V, A143E
B14: N139Y (protein)
chain: B1 chain with L137V, N139Y
B15: G144A (protein)
chain: B1 chain with L137V, G144A
B16: A143G (protein)
chain: B1 chain with L137V, A143G

Tested on: mutant form of α-Gal A expressed in HEK-293 cells
Test: HEK assay (GLP HEK / Migalastat Amenability Assay): α-Gal A activity in lysates of transiently transfected HEK-293 cells incubated with or without 10 μM migalastat
Type: cell-based, human
Details: 10 μM migalastat versus baseline
Outline: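 HEK-293 cells transiently transfected with mutant α-Gal A and incubated with or without 10 μM migalastat; lysate activity given as nmol free 4-MU released per mg protein per hour. Values are mean±SEM.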

Q: Which “Absolute increase (% WT)” value does the source give for B1 here?
A: 11.7 % WT

Q: Which “Absolute increase (% WT)” value does the source give for B2 here?
A: 59.5 % WT

Q: How did the “Absolute increase (% WT)” value turn out when B3 was run?
A: 42.5 % WT

Q: For B4, which “Absolute increase (% WT)” value is on record?
A: 28.1 % WT

Q: With B5 as the molecule, how does the “Absolute increase (% WT)” value read?
A: 34.4 % WT

Q: How did the “Absolute increase (% WT)” value turn out when B6 was run?
A: 7.1 % WT

Q: Which “Absolute increase (% WT)” value does the source give for B7 here?
A: 40.3 % WT

Q: B8 was tested. Which “Absolute increase (% WT)” value did it give?
A: 20.1 % WT

Q: For B9, which “Absolute increase (% WT)” value is on record?
A: 26.4 % WT

Q: With B10 as the molecule, how does the “Absolute increase (% WT)” value read?
A: 49.4 % WT

Q: Which “Absolute increase (% WT)” value does the source give for B11 here?
A: 39.4 % WT

Q: How did the “Absolute increase (% WT)” value turn out when B12 was run?
A: 33.8 % WT

Q: Which “Absolute increase (% WT)” value does the source give for B13 here?
A: 11.4 % WT

Q: How did the “Absolute increase (% WT)” value turn out when B14 was run?
A: 11.7 % WT

Q: Which “Absolute increase (% WT)” value does the source give for B15 here?
A: 15.5 % WT

Q: For B16, which “Absolute increase (% WT)” value is on record?
A: 51.9 % WT

Same assay, conditions: 10 μM migalastat α-Gal A activity relative to baseline

Q: Which Relative increase does the source give for B1 here?
A: 1.3

Q: For B2, which Relative increase is on record?
A: 1.8

Q: For B3, which Relative increase is on record?
A: 1.4

Q: Which Relative increase does the source give for B4 here?
A: 1.4

Q: For B5, which Relative increase is on record?
A: 1.5

Q: For B6, which Relative increase is on record?
A: 3.9

Q: How did the Relative increase turn out when B7 was run?
A: 1.4

Q: How did the Relative increase turn out when B8 was run?
A: 2.3

Q: With B9 as the molecule, how does the Relative increase read?
A: 1.5

Q: B10 was tested. Which Relative increase did it give?
A: 2.1

Q: How did the Relative increase turn out when B11 was run?
A: 1.3

Q: With B12 as the molecule, how does the Relative increase read?
A: 1.3

Q: For B13, which Relative increase is on record?
A: 1.5

Q: How did the Relative increase turn out when B14 was run?
A: 1.2

Q: For B15, which Relative increase is on record?
A: 1.3

Q: For B16, which Relative increase is on record?
A: 1.8

Same assay, conditions: 10 μM migalastat, 5 days; percentage of baseline wild-type α-Gal A activity; mean ± SEM

Q: For B1, which “10 μM migalastat α-Gal A activity (% WT)” value is on record?
A: 53.3 ± 3.7 % WT

Q: B2 was tested. Which “10 μM migalastat α-Gal A activity (% WT)” value did it give?
A: 132.1 ± 9 % WT

Q: How did the “10 μM migalastat α-Gal A activity (% WT)” value turn out when B3 was run?
A: 165.7 ± 9.7 % WT

Q: For B4, which “10 μM migalastat α-Gal A activity (% WT)” value is on record?
A: 101.2 ± 7.1 % WT

Q: Which “10 μM migalastat α-Gal A activity (% WT)” value does the source give for B5 here?
A: 98.2 ± 9.1 % WT

Q: For B6, which “10 μM migalastat α-Gal A activity (% WT)” value is on record?
A: 9.5 ± 0.8 % WT

Q: For B7, which “10 μM migalastat α-Gal A activity (% WT)” value is on record?
A: 154.1 ± 11.1 % WT

Q: For B8, which “10 μM migalastat α-Gal A activity (% WT)” value is on record?
A: 34.5 ± 1.5 % WT

Q: With B9 as the molecule, how does the “10 μM migalastat α-Gal A activity (% WT)” value read?
A: 78.3 ± 4.5 % WT

Q: How did the “10 μM migalastat α-Gal A activity (% WT)” value turn out when B10 was run?
A: 92.1 ± 7.1 % WT

Q: B11 was tested. Which “10 μM migalastat α-Gal A activity (% WT)” value did it give?
A: 180.9 ± 15 % WT

Q: Which “10 μM migalastat α-Gal A activity (% WT)” value does the source give for B12 here?
A: 127.4 ± 8.8 % WT

Q: For B13, which “10 μM migalastat α-Gal A activity (% WT)” value is on record?
A: 37.3 ± 1.8 % WT

Q: For B14, which “10 μM migalastat α-Gal A activity (% WT)” value is on record?
A: 64 ± 5.2 % WT

Q: B15 was tested. Which “10 μM migalastat α-Gal A activity (% WT)” value did it give?
A: 60.4 ± 2.8 % WT

Q: B16 was tested. Which “10 μM migalastat α-Gal A activity (% WT)” value did it give?
A: 119.7 ± 5.9 % WT

Same assay, conditions: absence of migalastat; percentage of baseline wild-type α-Gal A activity; mean ± SEM

Q: For B1, which “Baseline α-Gal A activity (% WT)” value is on record?
A: 41.6 ± 2.1 % WT

Q: Which “Baseline α-Gal A activity (% WT)” value does the source give for B2 here?
A: 72.6 ± 5.8 % WT

Q: B3 was tested. Which “Baseline α-Gal A activity (% WT)” value did it give?
A: 123.2 ± 12.1 % WT

Q: With B4 as the molecule, how does the “Baseline α-Gal A activity (% WT)” value read?
A: 73.1 ± 5.4 % WT

Q: How did the “Baseline α-Gal A activity (% WT)” value turn out when B5 was run?
A: 63.8 ± 7.1 % WT

Q: With B6 as the molecule, how does the “Baseline α-Gal A activity (% WT)” value read?
A: 2.5 ± 0.2 % WT

Q: With B7 as the molecule, how does the “Baseline α-Gal A activity (% WT)” value read?
A: 113.8 ± 9.5 % WT

Q: Which “Baseline α-Gal A activity (% WT)” value does the source give for B8 here?
A: 14.4 ± 1.1 % WT

Q: Which “Baseline α-Gal A activity (% WT)” value does the source give for B9 here?
A: 51.8 ± 5.1 % WT

Q: B10 was tested. Which “Baseline α-Gal A activity (% WT)” value did it give?
A: 42.7 ± 3.3 % WT

Q: How did the “Baseline α-Gal A activity (% WT)” value turn out when B11 was run?
A: 141.5 ± 12 % WT

Q: Which “Baseline α-Gal A activity (% WT)” value does the source give for B12 here?
A: 93.6 ± 5.8 % WT

Q: B13 was tested. Which “Baseline α-Gal A activity (% WT)” value did it give?
A: 25.9 ± 1.5 % WT

Q: B14 was tested. Which “Baseline α-Gal A activity (% WT)” value did it give?
A: 52.3 ± 3.8 % WT

Q: Which “Baseline α-Gal A activity (% WT)” value does the source give for B15 here?
A: 44.9 ± 3.6 % WT

Q: B16 was tested. Which “Baseline α-Gal A activity (% WT)” value did it give?
A: 67.8 ± 3.4 % WT

Same assay, conditions: lysates of HEK-293 cells transfected with the mutant form, incubated 5 days in the absence of migalastat; mean ± SEM

Q: Which “Baseline α-Gal A activity” value does the source give for B1 here?
A: 15359 ± 656 nmol/mg/h

Q: For B2, which “Baseline α-Gal A activity” value is on record?
A: 26053 ± 1925 nmol/mg/h

Q: With B3 as the molecule, how does the “Baseline α-Gal A activity” value read?
A: 42995 ± 3236 nmol/mg/h

Q: For B4, which “Baseline α-Gal A activity” value is on record?
A: 29115 ± 2336 nmol/mg/h

Q: B5 was tested. Which “Baseline α-Gal A activity” value did it give?
A: 22602 ± 2254 nmol/mg/h

Q: How did the “Baseline α-Gal A activity” value turn out when B6 was run?
A: 759 ± 69 nmol/mg/h

Q: With B7 as the molecule, how does the “Baseline α-Gal A activity” value read?
A: 40575 ± 2928 nmol/mg/h

Q: B8 was tested. Which “Baseline α-Gal A activity” value did it give?
A: 4768 ± 480 nmol/mg/h

Q: For B9, which “Baseline α-Gal A activity” value is on record?
A: 17180 ± 1455 nmol/mg/h

Q: How did the “Baseline α-Gal A activity” value turn out when B10 was run?
A: 15415 ± 1294 nmol/mg/h

Q: How did the “Baseline α-Gal A activity” value turn out when B11 was run?
A: 50348 ± 3558 nmol/mg/h

Q: For B12, which “Baseline α-Gal A activity” value is on record?
A: 33797 ± 2244 nmol/mg/h

Q: Which “Baseline α-Gal A activity” value does the source give for B13 here?
A: 7681 ± 439 nmol/mg/h

Q: Which “Baseline α-Gal A activity” value does the source give for B14 here?
A: 19998 ± 1682 nmol/mg/h

Q: With B15 as the molecule, how does the “Baseline α-Gal A activity” value read?
A: 20304 ± 1590 nmol/mg/h

Q: How did the “Baseline α-Gal A activity” value turn out when B16 was run?
A: 20419 ± 1260 nmol/mg/h

Same assay, conditions: lysates of HEK-293 cells transfected with the mutant form, incubated 5 days with 10 μM migalastat; mean ± SEM

Q: For B1, which “10 μM migalastat α-Gal A activity” value is on record?
A: 19794 ± 1475 nmol/mg/h

Q: Which “10 μM migalastat α-Gal A activity” value does the source give for B2 here?
A: 46670 ± 2685 nmol/mg/h

Q: For B3, which “10 μM migalastat α-Gal A activity” value is on record?
A: 59162 ± 3600 nmol/mg/h

Q: For B4, which “10 μM migalastat α-Gal A activity” value is on record?
A: 40678 ± 3158 nmol/mg/h

Q: Which “10 μM migalastat α-Gal A activity” value does the source give for B5 here?
A: 34806 ± 2770 nmol/mg/h

Q: With B6 as the molecule, how does the “10 μM migalastat α-Gal A activity” value read?
A: 2988 ± 262 nmol/mg/h

Q: How did the “10 μM migalastat α-Gal A activity” value turn out when B7 was run?
A: 54681 ± 3030 nmol/mg/h

Q: With B8 as the molecule, how does the “10 μM migalastat α-Gal A activity” value read?
A: 11112 ± 732 nmol/mg/h

Q: With B9 as the molecule, how does the “10 μM migalastat α-Gal A activity” value read?
A: 26326 ± 1627 nmol/mg/h

Q: For B10, which “10 μM migalastat α-Gal A activity” value is on record?
A: 32440 ± 2092 nmol/mg/h

Q: Which “10 μM migalastat α-Gal A activity” value does the source give for B11 here?
A: 62820 ± 3401 nmol/mg/h

Q: B12 was tested. Which “10 μM migalastat α-Gal A activity” value did it give?
A: 45090 ± 2667 nmol/mg/h

Q: Which “10 μM migalastat α-Gal A activity” value does the source give for B13 here?
A: 11458 ± 884 nmol/mg/h

Q: With B14 as the molecule, how does the “10 μM migalastat α-Gal A activity” value read?
A: 24303 ± 2079 nmol/mg/h

Q: For B15, which “10 μM migalastat α-Gal A activity” value is on record?
A: 27268 ± 1039 nmol/mg/h

Q: Which “10 μM migalastat α-Gal A activity” value does the source give for B16 here?
A: 36821 ± 2997 nmol/mg/h
